Substitutions are numbered along the chain they refer to. Several values for one entry are separate records, joined by “and”; a condition that tells them apart may be missing. Equal values may be shown once.
B1: LRP-1 peptide LA26-28 (peptide)
chain: CEPYQFRCKNNRCVPGRWQCDYDNDCGDNSDEESCTPRPCSESEFSCANGRCIAGRWKCDGDHDCADGSDEKDCTPRCDMDQFQCKSGHCIPLRWRCDADADCMDGSDEEACGTGVRT
B2: LRP-1 peptide LA23-24 (peptide)
chain: not shown
notes: Tags implied (Ni-NTA, anti-HA detection), not described
B3: LRP-1 peptide LA21 (peptide)
chain: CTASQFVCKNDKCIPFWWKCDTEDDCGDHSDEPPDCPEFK
notes: as for B2
B4: LRP-1 peptide LA22 (peptide)
chain: not shown
notes: as for B2
B5: LRP-1 peptide LA26 (peptide)
chain: not shown
notes: as for B2
B6: LRP-1 peptide LA27 (peptide)
chain: not shown
B7: LRP-1 peptide LA28 (peptide)
chain: not shown
notes: as for B2
B8: LRP-1 peptide LA4-5 (peptide)
chain: CPSDRFKCENNRCIPNRWLCDGDNDCGNSEDESNATCSARTCPPNQFSCASGRCIPISWTCDLDDDCGDRSDESASCAYPT
B9: LRP-1 peptide LA3 (peptide)
chain: not shown
B10: LRP-1 peptide LA5 (peptide)
chain: not shown
B11: LRP-1 peptide LA6 (peptide)
chain: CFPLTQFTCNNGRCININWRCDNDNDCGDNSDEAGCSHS
notes: as for B2
B12: LRP-1 peptide LA11-20 (peptide)
chain: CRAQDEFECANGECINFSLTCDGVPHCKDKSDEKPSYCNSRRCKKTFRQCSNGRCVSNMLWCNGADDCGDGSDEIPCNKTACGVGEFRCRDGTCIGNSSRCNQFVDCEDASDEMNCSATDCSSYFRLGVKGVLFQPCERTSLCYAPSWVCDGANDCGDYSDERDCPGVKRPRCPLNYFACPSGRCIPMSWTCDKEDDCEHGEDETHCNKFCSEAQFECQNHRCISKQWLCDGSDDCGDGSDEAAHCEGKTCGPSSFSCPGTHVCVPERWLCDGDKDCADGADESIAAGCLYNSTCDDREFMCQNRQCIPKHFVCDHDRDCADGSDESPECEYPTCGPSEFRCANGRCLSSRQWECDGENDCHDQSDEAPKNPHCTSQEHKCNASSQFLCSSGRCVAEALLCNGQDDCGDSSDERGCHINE
B13: LRP-1 peptide LA16 (peptide)
chain: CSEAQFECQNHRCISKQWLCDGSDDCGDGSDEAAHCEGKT
B14: LRP-1 peptide LA17 (peptide)
chain: CGPSSFSCPGTHVCVPERWLCDGDKDCADGADESIAAGCLYNST
notes: as for B2
B15: LRP-1 peptide LA21-23 (peptide)
chain: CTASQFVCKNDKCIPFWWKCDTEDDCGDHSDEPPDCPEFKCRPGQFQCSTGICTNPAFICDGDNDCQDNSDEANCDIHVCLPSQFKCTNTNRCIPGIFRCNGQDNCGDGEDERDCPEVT
B16: LRP-1 peptide LA7 (peptide)
chain: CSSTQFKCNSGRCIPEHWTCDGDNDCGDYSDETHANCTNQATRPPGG
notes: The end 1061 is inferred from the end of LA5-7; Tags implied, not described

What was measured:
[1] = target: T1, recombinant human TIMP-3 (human, UniProt P35625 24-211); experiment: cell-based or functional assay
T1 sequence (looked up): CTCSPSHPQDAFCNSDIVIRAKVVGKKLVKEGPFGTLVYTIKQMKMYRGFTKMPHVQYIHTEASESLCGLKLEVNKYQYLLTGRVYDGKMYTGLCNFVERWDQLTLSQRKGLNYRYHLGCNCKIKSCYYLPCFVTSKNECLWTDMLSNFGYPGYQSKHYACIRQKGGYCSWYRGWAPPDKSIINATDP

[2] = target: MMP-13 (UniProt P45452 20-471, limits assumed); experiment: cell-based or functional assay
[3] = target: T2, recombinant TIMP-3 (human or mouse; Table 2 does not say which); experiment: binding ELISA, Assay 2
T2 construct: The methods say 'human or mouse TIMP-3'

[4] = target: T1, recombinant human TIMP-3; experiment: direct ELISA, coated huTIMP-3
Method: (§1) After incubation, the coating solution is removed and replaced with 250 microL/well of blocking buffer (1% BSA, TBS [pH 7.5], 1 mM CaCl₂) and incubated with shaking for 1 hour at room temperature. The plates are then washed three times with 200 microL/well with wash buffer 1 (TBS [pH 7.5], 1 mM CaCl₂). The LRP-1 peptides are titrated in assay buffer (0.1% BSA, TBS [pH 7.5], 1 mM CaCl₂, 0.02% Tween-20) in a separate polypropylene non-treated round-bottom 96-well plate (BD Falcon™) starting at 1 microM concentration and then diluted serially 4-fold for 8-points, with the last point buffer only. Then 100 microL/well of the diluted LRP-1 peptide titration is added to the TIMP-3 coated plate and allowed to bind for 1.5 hour at room temperature with shaking. After incubation, the plate is washed three times with 200 microL/well of wash buffer 2 (TBS [pH 7.5], 1 mM CaCl₂, 0.02% Tween-20). […] The assay plate is then washed three times with 200 microL/well with wash buffer 2. The plate is developed by adding 100 microL/well of 1:1 mixture of TMB and H₂O₂ (Pierce, Fisher Thermo Scientific, Rockford Il.), the reaction is stopped by adding 100 microL/well 2NH₂SO₄ (VWR), and read on a SpectraMax microplate reader (Molecular Devices, Sunnyvale, Calif.) at OD450 nm using SOFTmax Pro software version 3.1.2. Data is analyzed using GraphPad Prism 4.01 software. Binding of LRP-1 peptides to TIMP-3 is expressed as binding EC50.

[5] = target: T3, recombinant mouse TIMP-3 (mouse, UniProt P39876 24-211); experiment: direct ELISA, coated muTIMP-3
T3 construct: also called MuTIMP-3
T3 sequence (looked up): T1 sequence (looked up) with T51S, D87E, Q103H, I183S
Method: as §1

[6] = target: T2, recombinant TIMP-3 (human or mouse; …); experiment: AlphaScreen, biotinylated TIMP-3, Assay 1
Method: (§2) Peptides were also evaluated by AlphaScreen® (Amplified Luminescent Proximity Homogeneous Assay; PerkinElmer, Waltham, Mass.) a very sensitive non-radioactive homogeneous assay technology that allows the screening of a large range of biological interactions and activities, substantially according to the manufacturer's instructions. Briefly, all dilutions are made in AlphaScreen® Buffer: [40 mM HEPES pH 7.5, 100 mM NaCl, 1 mM CaCl2, 0.1% BSA, 0.05% Tween-20]. The LRP-1 peptides are titrated in a separate polypropylene 96-well plate (Falcon) starting at 4 microM concentration and then diluted serially 3-fold for 12-points, with the last point buffer only. First 2 microL/well of protein titration curve is added to white, small volume, 384-well assay plate (Greiner Bio-One, Stonehouse, UK) in duplicate. Next, 2 microL of biotinylated (AFS, in-house conjmicroGation) recombinant human or mouse TIMP-3, is added at 12 nM (or 3 nM final assay concentration) to the assay plate. Lastly, in subdued light 4 microL of a mixture of streptavidin donor beads, anti-mouse IgG acceptor beads (PerkinElmer) both diluted to 20 microG/mL (10 microG/mL final assay concentration) and 2 nM (1 nM final concentration) rat-anti-HA (clone3F10)-HRP (Roche Diagnostics) is added to the plates. Plates containing 8 microL final assay volme are covered with TopSeal A (to prevent evaporation), spun quickly at 1000 rpm, and incubated overnight (covered with foil to prevent light exposure) before reading on Fusion plate reader (PerkinElmer) using AlphaScreen® parameters (excitation 680 nm and emission 520-620 nm). Data is analyzed using GraphPad Prism 4.01 software. Binding to TIMP-3 is reported as total signal (cps).

[7] = target: T2, recombinant TIMP-3 (human or mouse; …); experiment: AlphaScreen, biotinylated TIMP-3, Assay 2
Method: as §2

[8] = target: T1, recombinant human TIMP-3; experiment: indirect ELISA, huTIMP-3 captured by anti-TIMP-3 clone 277128
Method: Then 100 microL/well of the diluted LRP-1 peptide titration is added to the TIMP-3 coated plate and allowed to bind for 1.5 hour at room temperature with shaking. After incubation, the plate is washed three times with 200 microL/well of wash buffer 2 (TBS [pH 7.5], 1 mM CaCl₂, 0.02% Tween-20). […] The assay plate is then washed three times with 200 microL/well with wash buffer 2. The plate is developed by adding 100 microL/well of 1:1 mixture of TMB and H₂O₂ (Pierce, Fisher Thermo Scientific, Rockford Il.), the reaction is stopped by adding 100 microL/well 2NH₂SO₄ (VWR), and read on a SpectraMax microplate reader (Molecular Devices, Sunnyvale, Calif.) at OD450 nm using SOFTmax Pro software version 3.1.2. Data is analyzed using GraphPad Prism 4.01 software. Binding of LRP-1 peptides to TIMP-3 is expressed as binding EC50.
After incubation, the plate contents are discarded and 250 microL/well of blocking buffer (1% BSA, TBS [pH 7.5], 1 mM CaCl₂) is added to the plate which is incubated with shaking for 1 hour at room temperature. The plate is then washed three times with 200 microL/well with wash buffer 1 (TBS [pH 7.5], 1 mM CaCl₂) followed by the addition of 100 microL of 20 nM recombinant human TIMP-3. The plate is incubated at room temperature for 1 hour. The LRP-1 peptides are titrated as described previously, and 100 microL/well of the diluted LRP-1 peptide titration is added to the TIMP-3 coated plate and allowed to bind for 1.5 hour at room temperature with shaking. After incubation, the plate is washed and the ELISA performed substantially as described previously for the direct binding ELISA.

Binder | % of the inhibitory activity of TIMP-3 + peptide compared to TIMP-3 alone, 16 nM [1] [%] | % of the inhibitory activity of TIMP-3 + peptide compared to TIMP-3 alone, 80 nM [1] [%] | % of the inhibitory activity of TIMP-3 + peptide compared to TIMP-3 alone, 400 nM [1] [%] | Direct Inhibition of MMP13 (% decrease), 1000 nM [2] [%] | EC50 [3] [nM] | % of the inhibitory activity of TIMP-3 + peptide compared to TIMP-3 alone, 2000 nM [1] [%] | EC50 [4] | EC50 [5] | total signal (cps) [6] [cps] | total signal (cps) [7] [cps] | EC50 [8]
B1 | 100 | 100 | 104 | 53 | – | – | – | – | – | – | –
B2 | – | – | 92 | – | ~600 | 53 | 187 nM | 140 nM | 2200 | 2000 | 85 nM
B3 | – | – | – | -2 | 1020 | – | 303 nM | 206 nM | 2200 | – | 313 nM
B4 | – | – | – | 59 | 426 | – | 456 nM and 340 nM | 394 nM and 478 nM | 2200 | – | 185 nM and 200 nM
CLPSQFKCTNTNRCIPGIFRCNGQDNCGDGEDERDCPEVT [LRP-1 peptide LA23] | 104 | 107 | – | 46 | – | 84 | – | – | – | – | –
B5 | 96 | 109 | 112 | 1 | 300 | 108 | 118 nM | 134 nM | 2200 | – | 179 nM
B6 | – | – | – | 47 | – | – | – | – | – | – | –
B7 | – | – | – | 32 | 300 | – | – | – | 2200 | – | 972 nM
B8 | – | 101 | – | 26 | – | 104 | – | – | – | – | –
B9 | – | 84 | 80 | 7 | – | 109 | – | – | – | – | –
B10 | – | – | – | 69 | – | – | – | – | – | – | –
B11 | – | – | – | 57 | 1210 | – | 95 nM | 38 nM | 2200 | – | 9 nM
B12 | – | – | – | 26 | – | – | – | – | – | – | –
B13 | 105 | 101 | 52 | 20 | – | 89 | – | – | – | – | –
B14 | – | 93 | 77 | 41 | – | 77 | 886 nM | – | 2200 | – | –
CNASSQFLCSSGRCVAEALLCNGQDDCGDSSDERGCHINE [LRP-1 peptide LA20] | – | – | – | 0 | – | – | – | – | – | – | –
B15 | 97 | 96 | 100 | 19 | – | 107 | – | – | – | – | –
B16 | – | – | – | – | ~2500 | – | – | – | 2200 | – | –

— patent publication US20120231013A1 (Amgen, published 2012)
